One assay addresses T1, His-GFP-Klp2 (S. pombe, UniProt Q9US03 1-817).
T1 sequence: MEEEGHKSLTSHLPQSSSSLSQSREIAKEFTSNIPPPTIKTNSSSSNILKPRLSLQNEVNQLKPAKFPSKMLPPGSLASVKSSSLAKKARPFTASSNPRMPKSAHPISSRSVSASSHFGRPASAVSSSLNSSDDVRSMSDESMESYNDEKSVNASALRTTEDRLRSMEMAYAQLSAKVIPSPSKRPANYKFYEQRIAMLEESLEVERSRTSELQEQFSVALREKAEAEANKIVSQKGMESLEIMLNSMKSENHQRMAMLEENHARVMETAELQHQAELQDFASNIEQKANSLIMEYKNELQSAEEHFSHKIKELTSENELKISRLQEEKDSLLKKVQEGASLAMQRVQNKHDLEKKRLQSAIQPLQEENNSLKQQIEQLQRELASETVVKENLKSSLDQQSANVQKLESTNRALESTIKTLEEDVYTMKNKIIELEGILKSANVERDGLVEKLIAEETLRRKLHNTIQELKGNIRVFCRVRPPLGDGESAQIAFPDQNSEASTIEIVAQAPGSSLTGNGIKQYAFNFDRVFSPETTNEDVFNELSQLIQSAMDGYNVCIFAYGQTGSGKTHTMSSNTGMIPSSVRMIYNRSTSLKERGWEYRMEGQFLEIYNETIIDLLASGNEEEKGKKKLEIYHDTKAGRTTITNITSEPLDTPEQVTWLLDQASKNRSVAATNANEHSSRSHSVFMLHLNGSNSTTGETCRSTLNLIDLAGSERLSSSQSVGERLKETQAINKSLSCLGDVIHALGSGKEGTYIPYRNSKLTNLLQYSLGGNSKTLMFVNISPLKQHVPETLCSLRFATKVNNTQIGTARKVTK
Put plainly: pull-down.

The target of another assay is T2, StrepII-GFP-Klp2 (S. pombe, UniProt Q9US03 1-817).
T2 sequence: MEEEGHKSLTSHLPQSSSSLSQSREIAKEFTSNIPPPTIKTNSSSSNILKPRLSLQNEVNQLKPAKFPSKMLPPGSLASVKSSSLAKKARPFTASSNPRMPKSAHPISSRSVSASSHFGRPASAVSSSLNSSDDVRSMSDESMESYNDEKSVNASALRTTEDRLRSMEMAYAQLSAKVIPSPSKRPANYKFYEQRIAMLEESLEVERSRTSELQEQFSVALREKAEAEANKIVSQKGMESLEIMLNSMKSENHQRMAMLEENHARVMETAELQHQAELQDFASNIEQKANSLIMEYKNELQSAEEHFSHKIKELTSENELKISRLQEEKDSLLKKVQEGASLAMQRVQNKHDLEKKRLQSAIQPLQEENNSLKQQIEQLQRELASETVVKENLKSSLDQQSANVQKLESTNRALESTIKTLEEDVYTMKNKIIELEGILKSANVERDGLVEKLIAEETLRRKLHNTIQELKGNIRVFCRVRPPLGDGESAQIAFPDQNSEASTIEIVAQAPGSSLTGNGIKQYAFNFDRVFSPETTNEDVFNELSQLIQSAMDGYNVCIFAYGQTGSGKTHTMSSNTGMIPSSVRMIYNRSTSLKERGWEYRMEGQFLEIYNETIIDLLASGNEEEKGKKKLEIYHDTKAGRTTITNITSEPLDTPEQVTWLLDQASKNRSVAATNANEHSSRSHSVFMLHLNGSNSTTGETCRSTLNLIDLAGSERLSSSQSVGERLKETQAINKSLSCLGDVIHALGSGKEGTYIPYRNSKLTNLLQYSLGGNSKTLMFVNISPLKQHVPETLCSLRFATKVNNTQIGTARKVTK
Description: TIRF microscopy of purified proteins on microtubules.

B1: GST-Rsp1 (natural protein)
chain: MARTAFHDEFVDYYTILGAESTSSYVEIRQQYLKLVLRYHPDRNPGREAEVLPQFQLIQKAHEVLKDPKLRELFDQRRLLEAGRPDGVLRFRPKKSGPKNDISTKVASKVSVTMATKFAEKKKKQDRENVDSKDNNITNFSLHRSFSASGKMEKNNSFKEVSTSKSYISSGYLHPKTSPIFKKNGYATENVVDPISSSPRFKGPNYNKFNAKLYLESLREKRRTYTPLSEISNGLNSNGVENSSITKSSPRSSSSSNNERFKDTSEESIIFTSPNTPEHPSVYQTDITPEIKLEHSDNNSPSKPEIPFRHPTSKPLPPKPLSRSKSSSLSRNQTRSQLNDLSAENDSTSNSTEYDDQLQSILRSLAIEGDDDEVAKVLPKPPSVPTIQAPIPPEAPRNLTNASVDSYLNSFEMYQRRWSSYSIIYTQYAFQWQIFKNKCFQLDLMNTPGQSRLIDNWKEGSQAIQLFYAYEQMHLRALEELQSLKESLFASFGI
For the molecule B1, in the assay with His-GFP-Klp2, the binding result is listed as “binds”.

B2: Rsp1-mCherry-StrepII (natural protein)
chain: MARTAFHDEFVDYYTILGAESTSSYVEIRQQYLKLVLRYHPDRNPGREAEVLPQFQLIQKAHEVLKDPKLRELFDQRRLLEAGRPDGVLRFRPKKSGPKNDISTKVASKVSVTMATKFAEKKKKQDRENVDSKDNNITNFSLHRSFSASGKMEKNNSFKEVSTSKSYISSGYLHPKTSPIFKKNGYATENVVDPISSSPRFKGPNYNKFNAKLYLESLREKRRTYTPLSEISNGLNSNGVENSSITKSSPRSSSSSNNERFKDTSEESIIFTSPNTPEHPSVYQTDITPEIKLEHSDNNSPSKPEIPFRHPTSKPLPPKPLSRSKSSSLSRNQTRSQLNDLSAENDSTSNSTEYDDQLQSILRSLAIEGDDDEVAKVLPKPPSVPTIQAPIPPEAPRNLTNASVDSYLNSFEMYQRRWSSYSIIYTQYAFQWQIFKNKCFQLDLMNTPGQSRLIDNWKEGSQAIQLFYAYEQMHLRALEELQSLKESLFASFGI
For the molecule B2, in the assay with StrepII-GFP-Klp2, the binding result is given as “binds”.

Source of the values: PMC11698074 (Science Advances, 2025).
